{"source": "patent US11407811B2", "about": "“Fusion protein, preparation method therefor and use thereof” (JIANGSU RONGTAI BIOTECH CO., LTD., priority 2017, dated 2022)", "molecules": {"B1": {"name": "Protein II: IgG2-Fc linked to antiangiogenesis polypeptide EDSM-Y via a flexible linker; SEQ ID NO: 17 (protein)", "chain": "ERKCCVECPPCPAPPVAGPSVFLFPPKPKDTLMISRTPEVTCVVVDVSHEDPEVQFNWYVDGVEVHNAKTKPREEQFNSTFRVVSVLTVVHQDWLNGKEYKCKVSNKGLPAPIEKTISKTKGQPREPQVYTLPPSREEMTKNQVSLTCLVKGFYPSDISVEWESNGQPENNYKTTPPMLDSDGSFFLYSKLTVDKSRWQQGNVFSCSVMHEALHNHYTQKSLSLSPGKGGGGSGGGGSGGGGSFQPVLHLVALNSPLSGGMRGIRGADFQCFQQARAVGLAGTFRAGGGGRGD"}}, "key": {"[1]": {"test_system": "lung cancer cell A549", "assay": "MTT assay, proliferation of lung cancer cell A549", "type": "cell-based", "protocol": "(§1) The MTT assay was used to detect the inhibitory effect of the integrin blocker fusion protein obtained in Example 1 on the proliferation of various tumor cells, including melanoma cell B16F10, gastric cancer cell MGC-803, lung cancer cell A549, liver cancer cell Hep-G2, breast cancer cell MDA-MB-231, colon cancer cell HCT-116, human glioma U87, and cervical cancer cell Hela.\n(§2) The tumor cells were cultured in a 5% CO2 incubator at 37° C. to a density of 90% or more, and collected by trypsinization. The cells were resuspended in the culture liquid and counted under a microscope. The cell concentration was adjusted to 3.0×10^4 cells/mL. The cell suspension was inoculated into a 96-well plate at 100 μL per well and cultured overnight in a 5% CO2 incubator at 37° C. […] After the cells were fully adhered, each dilution was added to a 96-well plate at 100 μL per well, respectively. […] 20 μL of 5 mg/mL MTT was added to each well of a 96-well plate, and incubation was continued for 4 hours. The medium was aspirated and 100 μL of DMSO per well were added to dissolve. The absorbance was measured at 570 nm with a microplate reader with a reference wavelength of 630 nm, and the proliferation inhibition (PI) was calculated. The formula is as follows: […]\n(§3) where Ntest is the OD value of the test group and Ncontrol is the OD value of the blank control group.\n(§4) The test was repeated 5 times independently. The results obtained from the test were calculated as mean±SD, and statistical t-test was performed. P<0.05 was considered as a significant difference, and P<0.01 was considered as an extremely significant difference."}, "[2]": {"test_system": "xylene-induced ear swelling in mice", "assay": "Xylene-induced ear swelling in mice", "type": "in vivo", "details": "for Swelling degree / PI: injection; for Swelling degree: 2 h after xylene, mice; for PI: ear swelling vs control", "protocol": "80 Kunming mice were divided into 8 groups with 10 mice for each group and numbered. A physiological saline group was used as a blank control group, an aspirin group (200 mg/kg) was used as a positive control group, and fusion protein I, protein II, protein III, protein IV and protein V at high, medium and low doses (128, 32, 8 mg/kg) were used as experimental groups. Mice were administered once by injection, while EDSM needed to be administered twice a day for 5 consecutive days. The blank control group was given an equal volume of physiological saline. After the fifth day, 0.05 mL of xylene was applied to both sides of the right ears of the mice to induce inflammation, and the left ears were not applied and were normal ears. After 2 h, the mice were sacrificed by dislocation, and the ears were cut along the auricle. Ear pieces were taken with a puncher and weighed, and the swelling degree and swelling rate were calculated. Swelling degree=right ear piece weight-left ear piece weight, swelling rate=(swelling degree/left ear piece weight)×100%."}, "[3]": {"test_system": "neovascularization in premature rat retinopathy model", "assay": "Neovascularization in premature rat retinopathy model (fluctuating oxygen-induced)", "type": "in vivo", "protocol": "A fluctuating oxygen-induced animal model was adopted, and newborn rats (within 12 hours) spontaneously delivered on the same day were randomly divided into three groups: an oxygen model group, an oxygen treatment group, and a normal control group. The oxygen model was subdivided into three model subgroups, which were placed in a semi-closed oxygen chamber made of plexiglass together with the treatment group. The medical oxygen was introduced into the chamber, and the oxygen concentration was adjusted to 80%±2% with an oxygen meter. After 24 hours, nitrogen gas was introduced into the oxygen chamber, and then the oxygen concentration was rapidly adjusted to 10%±2% and maintained for 24 hours. […] The oxygen concentration was monitored 8 times a day, and the ambient temperature in the chamber was controlled to 23° C.±2° C. […]\nOn day 14, after the rats was sacrificed with ether anesthesia, the eyeballs were removed and fixed in a 40 g/L paraformaldehyde solution for 24 hours. […] 10 sections were randomly selected from each eyeball to be stained with hematoxylin and eosin, and the nucleus of vascular endothelial cells that broke through the inner limiting membrane of the retina was counted (only the nucleus of vascular endothelial cells closely related to the inner limiting membrane were counted), and the average number of cells per section per eyeball was counted."}, "[4]": {"test_system": "colon cancer cells HCT-116", "assay": "MTT assay, proliferation of colon cancer cell HCT-116", "type": "cell-based", "protocol": "as §1, §2, §3, §4"}}}
{"molecule": "B1", "values": [{"measurement": "A570 nm/A630 nm", "setting": "[1]; dose 1 μg/mL", "result": "0.8885 ± 0.0374"}, {"measurement": "PI (%)", "setting": "[1]; dose 1 μg/mL", "result": 8.28, "unit": "%"}, {"measurement": "A570 nm/A630 nm", "setting": "[1]; dose 2 μg/mL", "result": "0.7933 ± 0.0253"}, {"measurement": "PI (%)", "setting": "[1]; dose 2 μg/mL", "result": 18.11, "unit": "%"}, {"measurement": "A570 nm/A630 nm", "setting": "[1]; dose 4 μg/mL", "result": "0.7005 ± 0.0396"}, {"measurement": "PI (%)", "setting": "[1]; dose 4 μg/mL", "result": 27.69, "unit": "%"}, {"measurement": "A570 nm/A630 nm", "setting": "[1]; dose 8 μg/mL", "result": "0.6325 ± 0.0215"}, {"measurement": "PI (%)", "setting": "[1]; dose 8 μg/mL", "result": 34.71, "unit": "%"}, {"measurement": "A570 nm/A630 nm", "setting": "[1]; dose 16 μg/mL", "result": "0.5923 ± 0.0192"}, {"measurement": "PI (%)", "setting": "[1]; dose 16 μg/mL", "result": 38.86, "unit": "%"}, {"measurement": "PI (%)", "setting": "[1]; dose 16 μg/mL, listed as protein II", "result": "about 40%"}, {"measurement": "A570 nm/A630 nm", "setting": "[1]; dose 32 μg/mL", "result": "0.5006 ± 0.0347"}, {"measurement": "PI (%)", "setting": "[1]; dose 32 μg/mL", "result": 48.32, "unit": "%"}, {"measurement": "A570 nm/A630 nm", "setting": "[1]; dose 64 μg/mL", "result": "0.4106 ± 0.0286"}, {"measurement": "PI (%)", "setting": "[1]; dose 64 μg/mL", "result": 57.61, "unit": "%"}, {"measurement": "A570 nm/A630 nm", "setting": "[1]; dose 128 μg/mL", "result": "0.2008 ± 0.0147"}, {"measurement": "PI (%)", "setting": "[1]; dose 128 μg/mL", "result": 79.27, "unit": "%"}, {"measurement": "A570 nm/A630 nm", "setting": "[1]; dose 256 μg/mL", "result": "0.1165 ± 0.0159"}, {"measurement": "PI (%)", "setting": "[1]; dose 256 μg/mL", "result": 87.97, "unit": "%"}, {"measurement": "Swelling degree", "setting": "[2]; 8 mg/kg", "result": "6.21 ± 0.23", "unit": "mg"}, {"measurement": "PI", "setting": "[2]; 8 mg/kg", "result": 6.62, "unit": "%"}, {"measurement": "Swelling degree", "setting": "[2]; 32 mg/kg", "result": "5.18 ± 0.89", "unit": "mg"}, {"measurement": "PI", "setting": "[2]; 32 mg/kg", "result": 22.11, "unit": "%"}, {"measurement": "Swelling degree", "setting": "[2]; 128 mg/kg", "result": "3.87 ± 0.45", "unit": "mg"}, {"measurement": "PI", "setting": "[2]; 128 mg/kg", "result": 41.80, "unit": "%"}, {"measurement": "inhibition of xylene-induced ear swelling", "setting": "[2]; high doses", "result": "could significantly inhibit xylene-induced ear swelling"}, {"measurement": "Nucleus number (nucleus count of vascular endothelial cells)", "setting": "[3]; 100 μg intravitreal injection on day 7, counted on day 14, per section per eyeball", "result": "7.238 ± 1.194"}, {"measurement": "nucleus counts of retinal vascular endothelial cells", "setting": "[3]; intravitreal injection, dose of 100, day 14, oxygen model group 27.452±2.110", "result": "7.238±1.194"}, {"measurement": "A570 nm/A630 nm", "setting": "[4]; dose 1 μg/mL", "result": "0.8310 ± 0.0394"}, {"measurement": "PI (%)", "setting": "[4]; dose 1 μg/mL", "result": 5.59, "unit": "%"}, {"measurement": "A570 nm/A630 nm", "setting": "[4]; dose 2 μg/mL", "result": "0.7925 ± 0.0415"}, {"measurement": "PI (%)", "setting": "[4]; dose 2 μg/mL", "result": 9.96, "unit": "%"}, {"measurement": "A570 nm/A630 nm", "setting": "[4]; dose 4 μg/mL", "result": "0.7555 ± 0.0283"}, {"measurement": "PI (%)", "setting": "[4]; dose 4 μg/mL", "result": 14.17, "unit": "%"}, {"measurement": "A570 nm/A630 nm", "setting": "[4]; dose 8 μg/mL", "result": "0.7023 ± 0.0347"}, {"measurement": "PI (%)", "setting": "[4]; dose 8 μg/mL", "result": 20.21, "unit": "%"}, {"measurement": "A570 nm/A630 nm", "setting": "[4]; dose 16 μg/mL", "result": "0.6556 ± 0.0292"}, {"measurement": "PI (%)", "setting": "[4]; dose 16 μg/mL", "result": 25.52, "unit": "%"}, {"measurement": "A570 nm/A630 nm", "setting": "[4]; dose 32 μg/mL", "result": "0.6113 ± 0.0279"}, {"measurement": "PI (%)", "setting": "[4]; dose 32 μg/mL", "result": 30.55, "unit": "%"}, {"measurement": "A570 nm/A630 nm", "setting": "[4]; dose 64 μg/mL", "result": "0.5498 ± 0.0374"}, {"measurement": "PI (%)", "setting": "[4]; dose 64 μg/mL", "result": 37.54, "unit": "%"}, {"measurement": "A570 nm/A630 nm", "setting": "[4]; dose 128 μg/mL", "result": "0.4898 ± 0.0289"}, {"measurement": "PI (%)", "setting": "[4]; dose 128 μg/mL", "result": 44.35, "unit": "%"}, {"measurement": "A570 nm/A630 nm", "setting": "[4]; dose 256 μg/mL", "result": "0.4497 ± 0.0316"}, {"measurement": "PI (%)", "setting": "[4]; dose 256 μg/mL", "result": 48.91, "unit": "%"}]}
